Data on five molecules can be found in publication PMC7101311 (Nature Communications, 2020).

First the molecules themselves.
B3: PCNA (proliferative cell nuclear antigen) from Pyrococcus abyssi (natural protein, UniProt Q9UYX8 1-249, looked up)
chain: MPFEIVFEGAKEFAQLIETASRLIDEAAFKVTEEGISMRAMDPSRVVLIDLNLPASIFSKYEVDGEETIGVNMDHLKKVLKRGKAKETLILRKGEENFLEISLQGTATRTFKLPLIDVEEIEVDLPELPFTAKVVILGDVIKEAVKDASLVSDSMKFIAKENEFTMRAEGETQEVEVKLTLEDEGLLDIEVQEETKSAYGISYLSDMVKGLGKADEVTIKFGNEMPMQMEYYIRDEGRLIFLLAPRVEE
notes: PCNA, Pyrococcus abyssi; open reading frame optimized and synthesized, in pET28-a(+) with a thrombin-cleavable N-terminal 6xHis tag; PCNA as used in cryo-EM, crystallisation, BLI (analyte) and primer extension; also called sliding clamp; source: E. coli BL21-CodonPlus (DE3)-RIPL, purified (heat step, HisTrap, heparin, size exclusion)

Series [1] deals with primase (Saccharomyces cerevisiae) (UniProt P10363). Conditions: cited from earlier work.
Chain of primase (Saccharomyces cerevisiae) (P10363 whole entry, chain 1 of 2): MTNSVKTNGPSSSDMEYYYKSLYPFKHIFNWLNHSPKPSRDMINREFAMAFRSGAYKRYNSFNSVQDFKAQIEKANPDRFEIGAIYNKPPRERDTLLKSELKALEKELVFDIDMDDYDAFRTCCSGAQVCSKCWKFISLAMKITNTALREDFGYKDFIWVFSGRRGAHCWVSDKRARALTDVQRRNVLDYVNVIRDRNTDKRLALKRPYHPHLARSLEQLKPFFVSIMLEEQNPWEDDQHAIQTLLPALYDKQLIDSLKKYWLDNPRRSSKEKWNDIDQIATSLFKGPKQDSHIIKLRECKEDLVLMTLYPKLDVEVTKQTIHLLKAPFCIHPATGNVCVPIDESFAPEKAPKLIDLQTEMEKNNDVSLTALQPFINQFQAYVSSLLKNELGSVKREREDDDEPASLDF
Chain of primase (Saccharomyces cerevisiae) (P20457 whole entry, chain 2 of 2, further chain): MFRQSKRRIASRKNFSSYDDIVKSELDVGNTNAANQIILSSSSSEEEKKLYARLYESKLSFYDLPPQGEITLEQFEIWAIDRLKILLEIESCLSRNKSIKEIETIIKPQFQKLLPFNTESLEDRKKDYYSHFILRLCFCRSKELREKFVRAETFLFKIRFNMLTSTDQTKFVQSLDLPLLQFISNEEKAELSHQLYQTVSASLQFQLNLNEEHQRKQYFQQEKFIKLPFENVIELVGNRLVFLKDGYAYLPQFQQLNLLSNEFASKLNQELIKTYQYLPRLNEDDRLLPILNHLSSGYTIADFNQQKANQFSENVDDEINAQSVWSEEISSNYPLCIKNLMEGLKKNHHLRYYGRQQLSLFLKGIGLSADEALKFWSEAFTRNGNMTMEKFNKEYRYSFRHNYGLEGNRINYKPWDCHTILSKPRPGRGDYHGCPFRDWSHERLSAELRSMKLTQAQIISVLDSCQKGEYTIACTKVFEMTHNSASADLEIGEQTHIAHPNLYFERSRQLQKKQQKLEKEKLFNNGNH
The target in series [2] is PolD DP1 (small subunit, exonuclease-deficient);PolD DP2 (large catalytic subunit);PCNA (Pyrococcus abyssi;Pyrococcus …, UniProt Q9V2F3;PDB:6T8H_3;Q9UYX8 1-619;1-1275;1-249, H451A||). Nature of the series: cryo-EM structure (3.77 A); 2 mM Mg-acetate, 0.1 mM dAMPCPP (incoming nucleotide not seen in the map); Cryo-EM sample: 0.4 uM PolD, 1.2 uM PCNA, 0.7 uM DNA, 20 mM Na-HEPES pH 8, 0.01 mM NaCl (so in the source), 2 mM Mg-acetate, 0.1 mM dAMPCPP, 20 min at 4 C. The following applies: protein: recombinant;recombinant;recombinant; copies: 1;1;3; 5' overhang 7 nt on template strand (18 bp duplex).
Chain of PolD DP1 (small subunit, exonuclease-deficient);PolD DP2 (large catalytic subunit);PCNA (Q9V2F3 whole entry H451A, one chain of several): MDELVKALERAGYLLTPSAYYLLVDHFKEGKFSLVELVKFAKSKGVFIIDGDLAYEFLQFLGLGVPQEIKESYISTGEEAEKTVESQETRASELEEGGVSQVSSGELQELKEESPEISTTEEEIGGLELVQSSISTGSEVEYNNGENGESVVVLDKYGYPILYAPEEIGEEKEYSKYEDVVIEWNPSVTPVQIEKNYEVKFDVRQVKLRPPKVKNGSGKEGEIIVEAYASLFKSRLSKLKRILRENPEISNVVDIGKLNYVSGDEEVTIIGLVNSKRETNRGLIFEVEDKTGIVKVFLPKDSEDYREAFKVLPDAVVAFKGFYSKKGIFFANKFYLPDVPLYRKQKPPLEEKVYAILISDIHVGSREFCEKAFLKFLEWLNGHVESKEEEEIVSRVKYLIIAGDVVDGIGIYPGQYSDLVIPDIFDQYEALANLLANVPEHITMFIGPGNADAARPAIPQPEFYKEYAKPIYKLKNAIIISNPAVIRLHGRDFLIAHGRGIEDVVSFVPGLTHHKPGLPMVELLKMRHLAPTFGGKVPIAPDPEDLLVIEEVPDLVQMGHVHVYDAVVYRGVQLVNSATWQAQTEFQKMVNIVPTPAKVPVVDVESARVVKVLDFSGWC

Series [3] deals with T1, His6-tagged PCNA from Pyrococcus abyssi (Pyrococcus abyssi, UniProt Q9UYX8 1-249).
T1 construct: PCNA, Pyrococcus abyssi; open reading frame optimized and synthesized, in pET28-a(+) with a thrombin-cleavable N-terminal 6xHis tag; PCNA with its His tag kept, captured on the NTA chip for SPR; also called His-tagged PCNA; source: E. coli BL21-CodonPlus (DE3)-RIPL, purified (heat step, HisTrap, heparin, size exclusion); not shown: His6, N-terminal, kept
T1 sequence (looked up): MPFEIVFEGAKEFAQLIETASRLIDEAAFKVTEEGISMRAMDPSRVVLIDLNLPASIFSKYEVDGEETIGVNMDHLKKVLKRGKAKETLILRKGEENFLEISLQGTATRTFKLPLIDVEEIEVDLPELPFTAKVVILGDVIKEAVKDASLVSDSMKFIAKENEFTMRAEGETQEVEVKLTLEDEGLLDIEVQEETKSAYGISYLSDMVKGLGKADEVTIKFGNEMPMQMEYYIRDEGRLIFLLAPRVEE
Kind of series: SPR; Biacore T200; ~2000 RU His-tagged PCNA and PriS-PriL(1–210) on an NTA chip, His-tagged MBP as reference; cPIP peptide 0-200 µM, 30 s at 30 µL/min, 25 °C, buffer E with 100 µM EDTA; steady-state fit. The following applies: both partners purified. (In general: In SPR one partner is held on a chip, and binding of the other changes the refractive index at the surface.)

Series [4] concerns the molecule itself. Nature of the series: cryo-EM structure; 0.4 µM PolD (DP1 H451A), 1.2 µM PCNA, 0.7 µM primed DNA duplex (18-mer primer, 7-nt overhang), 0.1 mM dAMPCPP, buffer F (20 mM Na-Hepes pH 8, 0.01 mM NaCl, 2 mM Mg-acetate), 20 min at 4 °C; single-particle cryo-EM, 3.77 Å.
Series [5] addresses B3. Nature of the series: BLI; Octet RED384; His-MBP-fused DP2 constructs captured on Ni-NTA biosensors (1.5 nm); PCNA or PriS-PriL(1–210) 31.25-2000 nM, 300 s, 25 °C, buffer E (20 mM Na-Hepes pH 8, 0.15 M NaCl) with 0.2 mg/mL BSA; steady-state fit. Conditions: both partners purified.

As usually defined, the Kd is a measure of binding affinity in units of concentration. For “DNA polymerase alpha C-terminus (from UniProt P13382)”, the Kd in series [1] was 245 nM.

B1: primer-template duplex (18-mer primer / 25-mer template) (dsDNA)
DNA 1: CGCCGGGCCGAGCCGTGC
DNA 2: AGGTCGTGCACGGCTCGGCCCGGCG
Regarding B1, the binding result in series [2] is reported as “binds”.

B2: cPIP peptide (12 amino-acid peptide mimicking the DP2 C-terminal PIP-box) (peptide)
peptide: KKRVISLEEFFS
notes: C-terminal PIP-box (cPIP) of PolD DP2, Pyrococcus abyssi; limits worked out from the printed residues V1258, I1259, L1261, F1264; also called canonical PIP-box; source: synthetic peptide (Smart Bioscience)
As to B2, in series [3], binding was put at a Kd of 49000 ± 4000 nM. Usually stoichiometry N stands for a count of units in the complex or per binding partner. In the case of B3, in series [4], the “stoichiometry N” value is 3.

B4: MBP–iPIP-cPIP fusion (DP2:1196–1270) (domain or fragment, Pyrococcus abyssi, UniProt Q9V2F4 1381-1455, looked up)
chain: ETQLTLIVNPNDICQRLVMARTGEVNKSGLLENLSNGSKKTEKAEKAEKPRKKSDEKPKKKRVISLEEFFSRKSK
notes: C-terminal region of PolD DP2, Pyrococcus abyssi, residues 1196-1270, holding iPIP and cPIP; pIVEX His-MBP-TEV plasmid; TEV-cleavable N-terminal His6-MBP tag, kept for capture on Ni-NTA biosensors; also called His-MBP-fused DP2 construct; source: E. coli BL21-CodonPlus (DE3)-RIPL, purified (HisTrap, heparin, size exclusion; no heat step); not shown: His6, N-terminal, kept; MBP, N-terminal, kept
As for B4, binding in series [5] was put at a Kd of 472 ± 120 nM.
